B1: ATP synthase subunit O, mitochondrial-like (protein)
chain: MALCNRVRSGISLFTKSTFLTSQRSTLQRSLVAPFISLASRNYANVPGQKETKVKVPLALFGGSGNYASALYIASVKANAVEKVETELLQFVEAVKNSPIFSQFIRDLSVAKDVRVKVIQDICGEAKFSDVTKNFLVIVAENGRLKNIDTIAKRFAQLSMAYKGEVQATVTTVVPLPPEEEKALKETLQEIIGSGAKVHLEQKIDPSILGGLVLEFSQKVFDMSIKTRAQQMERILREPVSIANI
B2: uncharacterized protein LOC100306570 (protein)
chain: MASQSNTKSVHDFTVKDARGNNVNLADYKGKVLLIVNVASQCGLTNSNYTELNQLYEKYKGKGLEILAFPCNQFGAQEPGTNEEIVEFACTRFKAEFPIFDKVDVNGDNAAPLYKFLKSSKGGLFGDSIKWNFSKFLVDKDGNVVDRYAPTTSPLSIEKDIKKLLDA
B3: 14-3-3-like protein (protein)
chain: MAAAPSPREENVYMAKLAEQAERYEEMVEFMEKVSAAADNEELTVEERNLLSVAYKNVIGARRASWRIISSIEQKEESRGNEDHVSVIRDYRSKIESELSNICDGILKLLDSRLIPSASSGDSKVFYLKMKGDYHRYLAEFKTGAERKEAAESTLSAYKAAQDIANAELPPTHPIRLGLALNFSVFYYEILNSPDRACNLAKQAFDEAIAELDTLGEESYKDSTLIMQLLRDNLTLWTSDMQDDGADEIKEAAPKPDDQ
B4: seed maturation protein PM34 (protein)
chain: MASGEQKFPPQQQQTQPGKEHAMTPVPQFTSPDYKPSNKLQGKIALVTGGDSGIGRAVCNLFALEGATVAFTYVKGHEDKDARDTLEMIKRAKTSDAKDPMAIASDLGYDENCKRVVDEVVSAYGCIDILVNNAAEQYECGTVEDIDEPRLERVFRTNIFSYFFMARHALKHMKEGSSIINTTSVNAYKGHAKLLDYTSTKGAIVAYTRGLALQLVSKGIRVNGVAPGPIWTPLIPASFKEEETAQFGAQVPMKRAGQPIEVAPSYVFLASNQCSSYITGQVLHPNGGTVVNG
modifications: Glycine max
notes: spot also identified as uncharacterized protein LOC100809384 and hypothetical protein GLYMA_10G155300
B5: probable fructokinase-4 (protein)
chain: MALNNGVPATGTGLIVSFGEMLIDFVPTVSGVSLAEAPGFLKAPGGAPANVAIAVSRLGGKAAFVGKLGDDEFGHMLAGILKENGVRADGINFDQGARTALAFVTLRADGEREFMFYRNPSADMLLKPEELNLELIRSAKVFHYGSISLIVEPCRSAHLKAMEVAKESGCLLSYDPNLRLPLWPSAEEARKQILSIWEKADLIKVSDAELEFLTGSDKIDDESALSLWHPNLKLLLVTLGEHGSRYYTKSFKGSVDAFHVNTVDTTGAGDSFVGALLAKIVDDQSILEDEPRLREVLKFANACGAITTTQKGAIPALPKEEAALKLIKGGS
B6: uncharacterized protein At3g49720-like isoform X2 (protein)
chain: MTRKQASSTRRGGLSGVLHSKSKSSPLLSISLVLFVAILLILYACIGSGILGGRKDVISMAEDDFSCTFEVPSAIPVLKNAYGGSMKNVLHVGPESCSVVSKFLREGETEAWGVEPYDLDDADRNCKALVQKGIIRVADIKFPLPYRVKSFSHVIVSDALDYLSPKYINKTLPELARVSSDGIIIFTGYPGQPRAKIAPLSKFGRPHRC
B7: alcohol dehydrogenase 1 (protein)
chain: MSSSTVGQVIKCKAAVSWEAGKPLVIEEVEVAPPQAGEVRLKILYTSLCHTDVYFWEAKGQTPLFPRIFGHEAGGIVESVGEGVTHLKPGDHALPVFTGECGECPHCKSEESNMCDLLRINTDRGVMIHDSQTRFSIKGQPIYHFVGTSTFSEYTVVHAGCVAKVNPAAPLDKICVLSCGICTGLGATINVAKPKPGSSVAIFGLGAVGLAAAEGARISGASRIIGVDLVSSRFEEAKKFGVNEFVNPKDHDKPVQEVIAAMTNGGVDRAVECTGSIQAMISAFECVHDGWGVAVLVGVPNKDDAFKTHPVNFLNERTLKGTFYGNYKPRTDLPSVVEKYMNGELELEKFITHTVPFSEINKAFDYMLKGESIRCIIRMGE
modifications: Glycine max
notes: spot also identified as alcohol dehydrogenase 1-like
B8: superoxide dismutase [Mn], mitochondrial (protein)
chain: MAARALLTRKTLATVLRNDAKPIIGVGITAAATHSRGLHVYTLPDLDYDYGALEPAISGDIMQLHHQKHHQTYITNYNKALEQLQDAIAKKDSSAVVKLQGAIKFNGGGHVNHSIFWKNLAPVREGGGEPPKGSLGWAIDTHFGSFEALIQKVNAEGAALQGSGWVWLGLDKELKRLVVETTANQDPLVTKGPNLVPLIGIDVWEHAYYLQYKNVRPDYLKNIWKVINWKYASEVYEKESS
modifications: Glycine max
notes: spot also identified as hypothetical protein GLYMA_04G221300
B9: uncharacterized protein LOC100813859 (protein)
chain: MASEESQNKPPSEQSTTELITSAKLVAEAAQSALKSDSDKVDKAKVADAAGDLLDAAGKYGKLDDKQGIGQYVDKAADYLHNYQGDNTTAPSQPAESKGEESGGGLGGLANLAGGFFKK
B10: 35 kDa seed maturation protein isoform X1 (protein)
chain: MASRQQFKEDRAEAAAKLAAKDIGDINRTNERDEGYDLHDEANFKQARAEAAAKLAAKDLEDANRLRDNTFNTWKEQHQHDENKPGVIGSMFRAAKEAVVGKPHHEEVYAKETKMGEYSDYATQKARETKQKAGEYTDYAAQKAKETKDYAAEKAKNAKDTTVQKAGEYKDYTAEKAKNAKDTTVQKAGEYKDYTAEKAIEGKDSAVGKLGELKESAADAAKRAMGFFTGGNKDQTREEEEETRRSMQEVRVQDKEYGTGRGTGEKLVIKMEESRPGAVADALKAANRAMDGDMEEEGVLHVERRREKM
B11: uncharacterized protein LOC100499771 (protein)
chain: MAPIAVGDVIPDGILAYLDEENKPQTVSIHSLAAGKKVIIFGVPGAFTPTCSLKHVPGFIERAEELKGKGVDEIICISVNDPFVMNSWAKTFPENKHVKFLADGAAKYTNALGLELDLTDKGLGVRSKRFALLVEDLKVKVANVESGGEFTISSAEEIIKAL
modifications: Glycine max
notes: spot also identified as hypothetical protein GLYMA_09G192800
B12: seed maturation protein PM22 (protein)
chain: MSQLLDKAKNFVSEKVNDMAKPEASVTDVDFKRVSKDNVEYLAKVSVRNPYSTSIPICEINYSFKSASREIASGKIPDPGSLKAKDTTMVDVPVKVPYSILMSLAKDIGADWDIDYQLDLGLVIDVPVIGIFTIPLSQKGEIKLPTLSTMFA
B13: eukaryotic translation initiation factor 5A-2 (protein)
chain: MSDEEHHFESKADAGASKTYPQQAGTIRKNGYIVIKGRPCKVVEVSTSKTGKHGHAKCHFVGIDIFTAKKLEDIVPSSHNCDVPHVNRTDYQLIDIAEDGFLSLLTENGNTKDDLKLPTDESLLTQIKDGFAEGKDLVVSVMSAMGEEQICALKDIGPKN
modifications: Glycine max
notes: spot also identified as uncharacterized protein LOC100305510
B14: P24 oleosin isoform A (protein)
chain: MTTQVPPHSVQVHTTTHRYEAGVVPPGARFEPPRYEAGVKAPSIYHSERGPTTSQVLAVLAGLPVGGILLLLAGLTLAGTLTGLAVATPLFVLFSPVLVPATVAIGLAVAGFLTSGAFGLTALSSFSWILNYIRETQPASENLAAAAKHHLAEAAEYVGQKTKEVGQKTKEVGQDIQSKAQDTREAAARDAREAAARDAREAAARDAKVEARDVKRTTVTATTATA
modifications: Glycine max
B15: phosphoglycerate kinase, cytosolic (protein)
chain: MATKRSVGTLKEGDLKGKRVFVRVDLNVPLDDNLNITDDTRVRAAVPTIKYLTGYGAKVILSSHLGRPKGVTPKYSLKPLVPRLSQLLGIEVTMANDSIGEEVEKLVTQLPEGGVLLLENVRFYKEEEKNDPEFAKKLASLADLYVNDAFGTAHRAHASTEGVAKYLKPSVAGFLMQKELDYLVGAVSNPKRPFAAIVGGSKVSSKIGVIESLLEKVNVLLLGGGMIFTFYKAQGYSVGSSLVEEDKLSLATTLLEKAKAKGVSLLLPTDVVIADKFAADANSKTVPASSIPDGWMGLDIGPDSIKTFGEALDTTQTIIWNGPMGVFEFDKFATGTEAIAKKLAELSGKGVTTIIGGGDSVAAVEKVGLADKMSHISTGGGASLELLEGKQLPGVLALDDA
modifications: Glycine max

This assay has as its system IgE antibodies from soybean-allergic patients. In words: Immunoblotting of two-dimensional electrophoresis pattern of soybean proteins with patient serum. Format: binding, human. The settings on record: spot in 2D electrophoresis gel of soybean proteins; patient serum compared with healthy subject serum. The source says:
Transfer to membrane was done using the following transfer system and transfer buffer. • Transfer system: XCell SureLock Mini-Cell and XCell II Blot Module (produced by Life Technologies) • Transfer buffer: NuPAGE Transfer Buffer (X20) (produced by Life Technologies), used in a form diluted 20-fold with milliQ water.
To be specific, proteins in the two-dimensional electrophoresis gels were transferred to a membrane (PVDF membrane) according to the following procedure. • (1) The PVDF membrane was immersed in 100% methanol followed by milliQ water, and then moved into the transfer buffer to hydrophilize the PVDF membrane. • (2) After sponge, filter paper, the gels treated by second-dimensional SDS-PAGE, the hydrophilized PVDF membrane, filter paper, and sponge were put in place in this order, the transfer system was energized at a constant voltage of 30 V for one hour.
Immunoblotting of the membrane was carried out using, as a primary antibody, a serum sample from a patient with a soybean allergy or a serum sample from a healthy subject.
Immunoblotting of the membrane was carried out according to the following procedure. • (1) The transferred membrane was shaken in a 5% skim milk/PBST solution (a PBS buffer containing 0.3% Tween 20 nonionic surfactant) at room temperature for one hour. • (2) The membrane was left to stand in a solution of 3% primary antibody serum in 5% skim milk/PBST at room temperature for one hour. • (3) The membrane was washed with a PBST solution (5 min.×3 times). • (4) The membrane was left to stand in a 1:2500 dilution of the secondary antibody, anti-human IgE-HRP (horseradish peroxidase), with a 3% skim milk/PBST solution at room temperature for one hour. • (5) The membrane was washed with a PBST solution (5 min.×3 times). • (6) The membrane was left to stand in Pierce Western Blotting Substrate Plus (produced by Thermo Fisher Scientific) for 5 minutes.
The membrane obtained through the foregoing series of treatments was subjected to fluorescent image scanning on Typhoon 9400 (produced by GE).
The immunoblots obtained with the serum from the soybean-allergic patient were compared with those obtained with the control serum from the healthy subject.
(Immunoblotting shows a protein as a band on a membrane.)
With B1, the “specific binding to IgE antibodies from soybean-allergic patients” value (“specific binding to IgE antibodies” below) is “specific binding”. The value for B2 was “specific binding”.

Consider B3, for which the “specific binding to IgE antibodies” value was “specific binding”. Regarding B4, the “specific binding to IgE antibodies” value is given as “specific binding”. On to B5, for which the “specific binding to IgE antibodies” value is reported as “specific binding”. As to B6, the “specific binding to IgE antibodies” value is listed as “specific binding”. B7: the “specific binding to IgE antibodies” value was “specific binding”. Consider B8, for which the “specific binding to IgE antibodies” value is on record as “specific binding”. As to B9, the “specific binding to IgE antibodies” value is given as “specific binding”.

With B10, the “specific binding to IgE antibodies” value is reported as “specific binding”. The value for B11 was “specific binding”. The value for B12 was “specific binding”; that for B13 was “specific binding”; that for B14 was “specific binding”. On to B15, for which the “specific binding to IgE antibodies” value is on record as “specific binding”.

The values are drawn from patent publication US20250262297A1, “ALLERGY ANTIGEN AND EPITOPE THEREOF” (HOYU CO., LTD., priority 2017, published 2025).
